From US20210324028A1 (Pfizer, published 2021)
Positions count from the first letter of the chain named. Numbers in names are those of the source.

T1: human IL-2Rβ (human, UniProt P14784 27-240, limits assumed)
T1 construct: also called hIL-2Rβ; IL-2 receptor beta
T1 sequence (looked up): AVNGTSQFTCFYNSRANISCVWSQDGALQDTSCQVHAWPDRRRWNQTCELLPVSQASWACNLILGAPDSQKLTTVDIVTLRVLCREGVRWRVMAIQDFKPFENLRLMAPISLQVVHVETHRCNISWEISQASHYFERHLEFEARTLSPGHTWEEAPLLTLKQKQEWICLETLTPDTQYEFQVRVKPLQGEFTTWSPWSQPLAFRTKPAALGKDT

B1: hIL-15 V49R/D30A (ligand)
chain: NWVNVISDLKKIEDLIQSMHIDATLYTESAVHPSCKVTAMKCFLLELQRISLESGDASIHDTVENLIILANNSLSSNGNVTESGCKECEELEEKNIKEFLQSFVHIVQMFINTGGGGSGHHHHHHHHGGGLNDIFEAQKIEWHE
B2: hIL-15 V49R/H32L (ligand)
chain: B1 chain with A30D, H32L
B3: hIL-15 V49R/L69H (ligand)
chain: B1 chain with A30D, L69H
B4: hIL-15 V49R/H32A (ligand)
chain: B1 chain with A30D, H32A
B5: hIL-15 V49R/H32E (ligand)
chain: B1 chain with A30D, H32E
B6: hIL-15 V49R/H32N (ligand)
chain: B1 chain with A30D, H32N
B7: hIL-15 V49R/D30I (ligand)
chain: B1 chain with A30I
B8: hIL-15 V49R/I68G (ligand)
chain: B1 chain with A30D, I68G
B9: hIL-15 V49R/H32G (ligand)
chain: B1 chain with A30D, H32G
B10: hIL-15 V49R/L69Q (ligand)
chain: B1 chain with A30D, L69Q
B11: hIL-15 V49R/E64A (ligand)
chain: B1 chain with A30D, E64A
B12: hIL-15 V49R/D30T (ligand)
chain: B1 chain with A30T
B13: hIL-15 V49R/E64D (ligand)
chain: B1 chain with A30D, E64D
B14: hIL-15 V49R/D30N (ligand)
chain: B1 chain with A30N
B15: hIL-15 V49R/D30M (ligand)
chain: B1 chain with A30M
B16: hIL-15 V49R/D30E (ligand)
chain: B1 chain with A30E
B17: hIL-15 V49R/D30F (ligand)
chain: B1 chain with A30F
B18: hIL-15 V49R/H32P (ligand)
chain: B1 chain with A30D, H32P
B19: hIL-15 V49R/I68E (ligand)
chain: B1 chain with A30D, I68E
B20: hIL-15 V49R/D30Y (ligand)
chain: B1 chain with A30Y
B21: hIL-15 V49R/S7P (ligand)
chain: B1 chain with S7P, A30D
B22: hIL-15 V49R/H32S (ligand)
chain: B1 chain with A30D, H32S
B23: hIL-15 V49R/E64Q (ligand)
chain: B1 chain with A30D, E64Q
B24: hIL-15 V49R/H32Q (ligand)
chain: B1 chain with A30D, H32Q
B25: hIL-15 V49R/L69R (ligand)
chain: B1 chain with A30D, L69R
B26: hIL-15 V49R/D61A (ligand)
chain: B1 chain with A30D, D61A
B27: hIL-15 V49R/E64N (ligand)
chain: B1 chain with A30D, E64N
B28: hIL-15 V49R/N4T (ligand)
chain: B1 chain with N4T, A30D
B29: hIL-15 V49R/N4R (ligand)
chain: B1 chain with N4R, A30D
B30: hIL-15 V49R/L69Y (ligand)
chain: B1 chain with A30D, L69Y
B31: hIL-15 V49R/I68W (ligand)
chain: B1 chain with A30D, I68W
B32: hIL-15 V49R/E64H (ligand)
chain: B1 chain with A30D, E64H
B33: hIL-15 V49R/D30K (ligand)
chain: B1 chain with A30K
B34: hIL-15 V49R/E64T (ligand)
chain: B1 chain with A30D, E64T
B35: hIL-15 V49R/N4P (ligand)
chain: B1 chain with N4P, A30D
B36: hIL-15 V49R/H32D (ligand)
chain: B1 chain with A30D, H32D
B37: hIL-15 V49R/D30R (ligand)
chain: B1 chain with A30R
B38: hIL-15 V49R/H32K (ligand)
chain: B1 chain with A30D, H32K
B39: hIL-15 V49R/D30S (ligand)
chain: B1 chain with A30S
B40: hIL-15 V49R/D30L (ligand)
chain: B1 chain with A30L
B41: hIL-15 V49R/D30H (ligand)
chain: B1 chain with A30H
B42: hIL-15 V49R/H32M (ligand)
chain: B1 chain with A30D, H32M
B43: hIL-15 V49R/L69N (ligand)
chain: B1 chain with A30D, L69N
B44: hIL-15 V49R/I68Q (ligand)
chain: B1 chain with A30D, I68Q
B45: hIL-15 V49R/L69F (ligand)
chain: B1 chain with A30D, L69F
B46: hIL-15 V49R/H32R (ligand)
chain: B1 chain with A30D, H32R
B47: hIL-15 V49R/H32I (ligand)
chain: B1 chain with A30D, H32I
B48: hIL-15 V49R/D30Q (ligand)
chain: B1 chain with A30Q
B49: hIL-15 V49R/D30V (ligand)
chain: B1 chain with A30V
B50: hIL-15 V49R/H32T (ligand)
chain: B1 chain with A30D, H32T
B51: hIL-15 V49R/K11F (ligand)
chain: B1 chain with K11F, A30D
B52: hIL-15 V49R/K11M (ligand)
chain: B1 chain with K11M, A30D
B53: hIL-15 V49R/D30W (ligand)
chain: B1 chain with A30W
B54: hIL-15 V49R/H32W (ligand)
chain: B1 chain with A30D, H32W
B55: hIL-15 V49R/N4F (ligand)
chain: B1 chain with N4F, A30D

What follows are binders tested against T2, human IL-15Rα (human, UniProt Q13261 31-205, limits assumed) (assay: SPR, steady state).
T2 construct: also called hIL-15Rα; IL-15 receptor alpha
T2 sequence (Q13261 31-205 limits assumed): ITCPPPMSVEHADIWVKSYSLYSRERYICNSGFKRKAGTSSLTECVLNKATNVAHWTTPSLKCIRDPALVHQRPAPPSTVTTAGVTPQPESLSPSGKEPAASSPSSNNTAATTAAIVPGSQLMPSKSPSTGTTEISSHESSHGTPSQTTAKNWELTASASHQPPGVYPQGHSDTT
B1 gave a Kd of 151 nM.
For B2, the Kd was 189 nM.
B3 showed a Kd of 54.5 nM.
For B4, the Kd was 152 nM.
In the case of B5, the Kd is reported as 108 nM.
B6 was tested, and the Kd was 85.9 nM.
Work on B7 yielded a Kd of 197 nM.
In the case of B8, the Kd is reported as 101 nM.
For B9, the Kd was 249 nM.
In the case of B10, the Kd is reported as ~43.3 nM.
For B11, the Kd was 130 nM.
B12 was tested, and the Kd was 184 nM.
With B13 the Kd was 108 nM.
In the case of B14, the Kd is reported as 94 nM.
In the case of B15, the Kd is reported as 142 nM.
B16 showed a Kd of 124 nM.
For B17, the Kd was 166 nM.
In the case of B18, the Kd is reported as 162 nM.
Binder B19 has a Kd of 122 nM.
In the case of B20, the Kd is reported as 159 nM.
In the case of B21, the Kd is reported as > 500 nM.
Work on B22 yielded a Kd of 110 nM.
With B23 the Kd was 127 nM.
For B24, the Kd was 64 nM.
In the case of B25, the Kd is reported as 111 nM.
Work on B26 yielded a Kd of 78.2 nM.
B27 showed a Kd of 115 nM.
With B28 the Kd was ~88.6 nM.
With B29 the Kd was 56.1 nM.
B30 was tested, and the Kd was 137 nM.
With B31 the Kd was 93.7 nM.
B32 showed a Kd of 112 nM.
Work on B33 yielded a Kd of 158 nM.
For B34, the Kd was 141 nM.
Binder B35 has a Kd of 356 nM.
In the case of B36, the Kd is reported as 85.5 nM.
Work on B37 yielded a Kd of 155 nM.
In the case of B38, the Kd is reported as 92.8 nM.
In the case of B39, the Kd is reported as 146 nM.
B40 gave a Kd of 237 nM.
Work on B41 yielded a Kd of 121 nM.
B42 was tested, and the Kd was 134 nM.
For B43, the Kd was 44 nM.
Work on B44 yielded a Kd of 132 nM.
B45 gave a Kd of 106 nM.
In the case of B46, the Kd is reported as ~131 nM.
For B47, the Kd was 113 nM.
In the case of B48, the Kd is reported as 111 nM.
Binder B49 has a Kd of 153 nM.

What follows are binders tested against T1, human IL-2Rβ (assay: SPR, steady state).
B1 gave a Kd of 273 nM.
In the case of B2, the Kd is reported as 159 nM.
For B4, the Kd was 218 nM.
B5 showed a Kd of 130 nM.
Work on B6 yielded a Kd of 124 nM.
For B7, the Kd was 201 nM.
B9 was tested, and the Kd was 459 nM.
B11 was tested, and the Kd was > 500 nM.
Binder B12 has a Kd of 269 nM.
Binder B13 has a Kd of 291 nM.
B14 gave a Kd of 163 nM.
For B15, the Kd was 238 nM.
For B16, the Kd was 165 nM.
B17 was tested, and the Kd was 213 nM.
For B18, the Kd was 146 nM.
For B20, the Kd was 231 nM.
B22 gave a Kd of 176 nM.
In the case of B50, the Kd is reported as 186 nM.
With B23 the Kd was > 500 nM.
Work on B24 yielded a Kd of 147 nM.
In the case of B26, the Kd is reported as > 500 nM.
For B27, the Kd was > 500 nM.
B51 was tested, and the Kd was 162 nM.
For B52, the Kd was 180 nM.
For B32, the Kd was > 1000 nM.
Work on B53 yielded a Kd of 321 nM.
B33 was tested, and the Kd was 351 nM.
For B54, the Kd was 376 nM.
B34 was tested, and the Kd was > 500 nM.
B36 gave a Kd of 123 nM.
B37 showed a Kd of 290 nM.
Binder B38 has a Kd of 149 nM.
B39 gave a Kd of 249 nM.
B40 was tested, and the Kd was 277 nM.
B41 was tested, and the Kd was 149 nM.
In the case of B42, the Kd is reported as 161 nM.
B55 showed a Kd of 247 nM.
Work on B46 yielded a Kd of 156 nM.
With B47 the Kd was 110 nM.
B48 was tested, and the Kd was 197 nM.
For B49, the Kd was 258 nM.
